We go through one substance from patent publication US20190085029.

The data set has as its system T1, CDK5 inhibitory (CDK5i) peptide.
T1 sequence: ARAFGIPVRCYS

With Purified recombinant p25/CDK5 complex, the “CDK5 kinase activity (radiolabeled ATP and its substrate, H1)” value was “the CDK5i peptide significantly reduced CDK5 kinase activity compared to that from a scrambled peptide-treated group”.
